Among the data in patent publication US20170189513A1 are peptide exchange yield values, retold here.

This test has as its target HLA-A*24 (human). Kind of test: UV-ligand exchange, b2m ELISA. In general terms: In an ELISA, binding on a coated surface is turned into a signal by an enzyme label.
VYWDSAGAAHF [… (SEQ ID No 202)] returned a peptide exchange yield greater than 75%. The molecule EYSLFPGQVVI [… (SEQ ID No 197)] had a peptide exchange yield of 50 to 75%. The figure for DYTTWTALL [… (SEQ ID No 165)] is greater than 75%; for IYSWILDHF [… (SEQ ID No 173)] it is greater than 75%. The figure for TFSVSSHLF [… (SEQ ID No 222)] is 50 to 75%; for QYLGQIQHI [… (SEQ ID No 268)] it is 50 to 75%. For RYPDNLKHL [… (SEQ ID No 286)] the value was 20 to 49%. As for IYLVSIPEL [… (SEQ ID No 161)], the peptide exchange yield was greater than 75%. For VYTLDIPVL [… (SEQ ID No 160)] the value was greater than 75%; for VYEDQVGKF [… (SEQ ID No 170)], 20 to 49%. The figure for RYAEEVGIF [… (SEQ ID No 199)] is 50 to 75%; for YYEVHKELF [… (SEQ ID No 175)] it is greater than 75%; for VYVSDIQEL [… (SEQ ID No 288)] it is 50 to 75%. As for DYLKGLASF [… (SEQ ID No 163)], the peptide exchange yield is greater than 75%. Molecule AYVVFVSTL [… (SEQ ID No 207)] came in with a peptide exchange yield of 20 to 49%. Turning to VYVGGGQIIHL [… (SEQ ID No 174)], the peptide exchange yield fell in the range of 50 to 75%.

VFTRVSSFL [… (SEQ ID No 162)] came in with a peptide exchange yield of 50 to 75%. KFSSFSLFF [… (SEQ ID No 164)]: the peptide exchange yield lay in the range of 50 to 75%.

LYIDRPLPYL [… (SEQ ID No 196)]: the peptide exchange yield was 50 to 75%.

Regarding YYVESGKLF [… (SEQ ID No 166)], the peptide exchange yield was greater than 75%. As for PYRLIFEKF [… (SEQ ID No 281)], the peptide exchange yield was 20 to 49%.

Molecule HYPPVQVLF [… (SEQ ID No 285)] displayed a peptide exchange yield of 50 to 75%.

In turn, AYTLIAPNI [… (SEQ ID No 169)] registered a peptide exchange yield of 50 to 75%. The molecule HYSQELSLLYL [… (SEQ ID No 158)] gave a peptide exchange yield greater than 75%. For RYLNKAFHI [… (SEQ ID No 284)] the value was 50 to 75%. The figure for TYGDAGLTYTF [… (SEQ ID No 283)] is 50 to 75%; for EYNQWFTKL [… (SEQ ID No 176)] it is 50 to 75%; for LYNKGFIYL [… (SEQ ID No 159)] it is greater than 75%. In turn, LFIPSSKLLFL [… (SEQ ID No 171)] returned a peptide exchange yield of 50 to 75%. For LYITEPKTI [… (SEQ ID No 287)] the value was 50 to 75%; for KYQDILETI [… (SEQ ID No 168)], greater than 75%; for IYATEAHVF [… (SEQ ID No 201)], 50 to 75%. In turn, VYQGHTALL [… (SEQ ID No 277)] displayed a peptide exchange yield greater than 75%. For KYPVEWAKF [… (SEQ ID No 289)] the value was greater than 75%; for YFIDSTNLKTHF [… (SEQ ID No 269)], 50 to 75%. The molecule TYKDEGNDYF [… (SEQ ID No 209)] came in with a peptide exchange yield of 50 to 75%. The figure for NYINRILKL [… (SEQ ID No 167)] is greater than 75%; for TYELRYFQI [… (SEQ ID No 204)] it is greater than 75%.

Turning to TYSVSFPMF [… (SEQ ID No 195)], the peptide exchange yield was greater than 75%.

In the case of YYGPSLFLL [… (SEQ ID No 200)], the peptide exchange yield is 50 to 75%. NYYEVHKELF [… (SEQ ID No 270)] showed a peptide exchange yield of 50 to 75%.

With YYKSTSSAF [… (SEQ ID No 218)], the peptide exchange yield is 50 to 75%.
